# T1: S5a (substrate in the E3 ligase selectivity example), P55036
# T1 chain: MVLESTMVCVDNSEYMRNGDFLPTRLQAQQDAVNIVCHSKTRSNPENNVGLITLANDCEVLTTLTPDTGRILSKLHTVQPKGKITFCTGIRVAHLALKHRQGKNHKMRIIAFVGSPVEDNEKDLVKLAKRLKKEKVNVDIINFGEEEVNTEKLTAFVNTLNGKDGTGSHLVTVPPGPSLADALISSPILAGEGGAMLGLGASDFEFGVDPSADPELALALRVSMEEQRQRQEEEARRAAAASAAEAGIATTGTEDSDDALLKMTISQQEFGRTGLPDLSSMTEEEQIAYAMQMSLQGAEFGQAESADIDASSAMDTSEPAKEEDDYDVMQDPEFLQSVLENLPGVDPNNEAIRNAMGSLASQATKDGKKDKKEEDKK
# Target: T1, S5a (substrate in the E3 ligase …)
row,Protein,Ubiquitinated S5a?
1,GST-Siah2 (protein) MSRPSSTGPSANKPCSKQPPPQPQHTPSPAAPPAAATISAAGPGSSAVPAAAAVISGPGGGGGAGPVSPQHHELTSLFECPVCFDYVLPPILQCQAGHLVCNQCRQKLSCCPTCRGALTPSIRNLAMEKVASAVLFPCKYATTGCSLTLHHTEKPEHEDICEYRPYSCPCPGASCKWQGSLEAVMSHLMHAHKSITTLQGEDIVFLATDINLPGAVDWVMMQSCFGHHFMLVLEKQEKYEGHQQFFAIVLLIGTRKQAENFAYRLELNGNRRRLTWEATPRSIHDGVAAAIMNSDCLVFDTAIAHLFADNGNLGINVTISTCCP,Yes (low)
2,GST-E6AP (protein) MEKLHQCYWKSGEPQSDDIEASRMKRAAAKHLIERYYHQLTEGCGNEACTNEFCASCPTFLRMDNNAAAIKALELYKINAKLCDPHPSKKGASSAYLENSKGAPNNSCSEIKMNKKGARIDFKDVTYLTEEKVYEILELCREREDYSPLIRVIGRVFSSAEALVQSFRKVKQHTKEELKSLQAKDEDKDEDEKEKAACSAAAMEEDSEASSSRIGDSSQGDNNLQKLGPDDVSVDIDAIRRVYTRLLSNEKIETAFLNALVYLSPNVECDLTYHNVYSRDPNYLNLFIIVMENRNLHSPEYLEMALPLFCKAMSKLPLAAQGKLIRLWSKYNADQIRRMMETFQQLITYKVISNEFNSRNLVNDDDAIVAASKCLKMVYYANVVGGEVDTNHNEEDDEEPIPESSELTLQELLGEERRNKKGPRVDPLETELGVKTLDCRKPLIPFEEFINEPLNEVLEMDKDYTFFKVETENKFSFMTCPFILNAVTKNLGLYYDNRIRMYSERRITVLYSLVQGQQLNPYLRLKVRRDHIIDDALVRLEMIAMENPADLKKQLYVEFEGEQGVDEGGVSKEFFQLVVEEIFNPDIGMFTYDESTKLFWFNPSSFETEGQFTLIGIVLGLAIYNNCILDVHFPMVVYRKLMGKKGTFRDLGDSHPVLYQSLKDLLEYEGNVEDDMMITFQISQTDLFGNPMMYDLKENGDKIPITNENRKEFVNLYSDYILNKSVEKQFKAFRRGFHMVTNESPLKYLFRPEEIELLICGSRNLDFQALEETTEYDGGYTRDSVLIREFWEIVHSFTDEQKRLFLQFTTGTDRAPVGGLGKLKMIIAKNGPDTERLPTSHTCFNVLLLPEYSSKEKLKERLLKAITYAKGFGML,Yes
3,GST-Murf1 (protein) MDYKSSLIQDGNPMENLEKQLICPICLEMFTKPVVILPCQHNLCRKCANDIFQAANPYWTSRGSSVSMSGGRFRCPTCRHEVIMDRHGVYGLQRNLLVENIIDIYKQECSSRPLQKGSHPMCKEHEDEKINIYCLTCEVPTCSMCKVFGIHKACEVAPLQSVFQGQKTELNNCISMLVAGNDRVQTIITQLEDSRRVTKENSHQVKEELSQKFDTLYAILDEKKSELLQRITQEQEKKLSFIEALIQQYQEQLDKSTKLVETAIQSLDEPGGATFLLTAKQLIKSIVEASKGCQLGKTEQGFENMDFFTLDLEHIADALRAIDFGTDEEEEEFIEEEDQEEEESTEGKEEGHQ,Yes
4,His-CHIP (protein) MKGKEEKEGGARLGAGGGSPEKSPSAQELKEQGNRLFVGRKYPEAAACYGRAITRNPLVAVYYTNRALCYLKMQQHEQALADCRRALELDGQSVKAHFFLGQCQLEMESYDEAIANLQRAYSLAKEQRLNFGDDIPSALRIAKKKRWNSIEERRIHQESELHSYLSRLIAAERERELEECQRNHEGDEDDSHVRAQQACIEAKHDKYMADMDELFSQVDEKRKKRDIPDYLCGKISFELMREPCITPSGITYDRKDIEEHLQRVGHFDPVTRSPLTQEQLIPNLAMKEVIDAFISENGWVEDY,Yes
5,GST-Nedd4 (protein) MATCAVEVFGLLEDEENSRIVRVRVIAGIGLAKKDILGASDPYVRVTLYDPMNGVLTSVQTKTIKKSLNPKWNEEILFRVHPQQHRLLFEVFDENRLTRDDFLGQVDVPLYPLPTENPRLERPYTFKDFVLHPRSHKSRVKGYLRLKMTYLPKTSGSEDDNAEQAEELEPGWVVLDQPDAACHLQQQQEPSPLPPGWEERQDILGRTYYVNHESRRTQWKRPTPQDNLTDAENGNIQLQAQRAFTTRRQISEETESVDNRESSENWEIIREDEATMYSNQAFPSPPPSSNLDVPTHLAEELNARLTIFGNSAVSQPASSSNHSSRRGSLQAYTFEEQPTLPVLLPTSSGLPPGWEEKQDERGRSYYVDHNSRTTTWTKPTVQATVETSQLTSSQSSAGPQSQASTSDSGQQVTQPSEIEQGFLPKGWEVRHAPNGRPFFIDHNTKTTTWEDPRLKIPAHLRGKTSLDTSNDLGPLPPGWEERTHTDGRIFYINHNIKRTQWEDPRLENVAITGPAVPYSRDYKRKYEFFRRKLKKQNDIPNKFEMKLRRATVLEDSYRRIMGVKRADFLKARLWIEFDGEKGLDYGGVAREWFFLISKEMFNPYYGLFEYSATDNYTLQINPNSGLCNEDHLSYFKFIGRVAGMAVYHGKLLDGFFIRPFYKMMLHKPITLHDMESVDSEYYNSLRWILENDPTELDLRFIIDEELFGQTHQHELKNGGSEIVVTNKNKKEYIYLVIQWRFVNRIQKQMAAFKEGFFELIPQDLIKIFDENELELLMCGLGDVDVNDWREHTKYKNGYSANHQVIQWFWKAVLMMDSEKRIRLLQFVTGTSRVPMNGFAELYGSNGPQSFTVEQWGTPEKLPRAHTCFNRLDLPPYESFEELWDKLQMAIENTQGFDGVD,Yes

# Source: US20080293089
